1 substance from patent US6586236 can be followed below.

This test concerns the target goat anti-mouse kappa light chain IgG (Southern Biotech). Briefly: phage panning of 1:1 W100/R100 mixture on coated wells, oligonucleotide hybridization of plaque lifts.

With “DB3 R100 VH/κ-gpVIII fusion polypeptide displayed on JC-M13-88 phage (from UniProt P69541 24-73) (scFv)”, the % DB3 R100 variant in DB3 phage eluted, 2 rounds of panning turned out to be 82.1% and the % DB3 R100 variant in DB3 phage eluted, 3 rounds of panning is 79.2%.
